Measurements reported in paper PMC11870394.

Target: RSV prefusion F (PR-DM) (respiratory syncytial virus A) (UniProt P03420)
Experiment: cryo-EM structure

Work on “RSV prefusion F (PR-DM) (from UniProt P03420) (complex)” yielded a stoichiometry N of 3.
